Here are results for 94 variants from the supplement of paper PMC10567573.

The labels stand for the following.
B1: GLT8D2 (parent)
chain: QEAKLLHWNGRHKPWDFPSVHNDL
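Note: lentivirally expressed fusions sorted by FACS into six bins by GFP to DsRed ratio, PSI derived from sequencing read proportions per bin multiplied by bin number.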

Variants of B1 are the subject of this data set. Briefly: protein stability index of a GFP-peptide fusion (GPS, HEK-293T) (PSI 1-6); higher = more stable. Conditions: c terminus: a fixed tail appended.
In the case of QEAKLLHWNGRHKSWDFPSVHNDL, the protein stability index was found to be 2.68.

For the variant QEAKLLHWNGRHKQWDFPSVHNDL, the protein stability index was determined as 2.27. As to QEAKLLHWNGRHKNWDFPSVHNDL, the protein stability index was determined as 2.66. As for QEAKLLHWNGRHKKWDFPSVHNDL, the protein stability index is 2.69.

As for QEAKLLHWNGRHKYWDFPSVHNDL, the protein stability index came out at 2.09. The same measure for QEAKLLHWNGRHKTWDFPSVHNDL: 2.52; for QEAKLLHWNGRHKMWDFPSVHNDL: 2.36; for QEAKLLHWNGRHKFWDFPSVHNDL: 2.45.

Turning to QEAKLLHWNGRHKHWDFPSVHNDL, the protein stability index is 2.63. For QEAKLLHWNGRHKEWDFPSVHNDL, the protein stability index is 3.16.

QEAKLLHWNGRHKVWDFPSVHNDL: the protein stability index amounted to 2.09. As for QEAKLLHWNGRHKDWDFPSVHNDL, the figure is 3.29; as for QEAKLLHWNGRHKWWDFPSVHNDL, 2.19. Consider QEAKLLHWNGRHKLWDFPSVHNDL, for which the protein stability index is 2.33.

In the case of QEAKLLHWNGRHKAWDFPSVHNDL, the protein stability index is 2.62. Take QEAKLLHWNGRHKRWDFPSVHNDL: the protein stability index is 2.56. Regarding QEAKLLHWNGRHKCWDFPSVHNDL, the protein stability index came to 2.06. Consider QEAKLLHWNGRHKIWDFPSVHNDL, for which the protein stability index worked out at 2.03. For the variant QEAKLLHWNGRHKGWDFPSVHNDL, the protein stability index came out at 2.87. For QEAKLLHWNGRHKPTDFPSVHNDL, the protein stability index stood at 3.3.

In the case of QEAKLLHWNGRHKPPDFPSVHNDL, the protein stability index is 3.81. As for QEAKLLHWNGRHKPGDFPSVHNDL, the protein stability index was 3.76. Consider QEAKLLHWNGRHKPSDFPSVHNDL, for which the protein stability index came to 3.52. QEAKLLHWNGRHKPYDFPSVHNDL: the protein stability index is 2.62. The same measure for QEAKLLHWNGRHKPEDFPSVHNDL: 4.14; for QEAKLLHWNGRHKPCDFPSVHNDL: 3.22.

For QEAKLLHWNGRHKPQDFPSVHNDL, the protein stability index was found to be 4.37. Turning to QEAKLLHWNGRHKPMDFPSVHNDL, the protein stability index was determined as 3.48. Consider QEAKLLHWNGRHKPFDFPSVHNDL, for which the protein stability index came to 2.88.

With QEAKLLHWNGRHKPADFPSVHNDL, the protein stability index turned out to be 3.7.

As for QEAKLLHWNGRHKPKDFPSVHNDL, the protein stability index is 3.27.

Take QEAKLLHWNGRHKPDDFPSVHNDL: the protein stability index was determined as 3.59. The same measure for QEAKLLHWNGRHKPRDFPSVHNDL: 3.55; for QEAKLLHWNGRHKPIDFPSVHNDL: 3.02. Take QEAKLLHWNGRHKPHDFPSVHNDL: the protein stability index worked out at 3.17.

For QEAKLLHWNGRHKPNDFPSVHNDL, the protein stability index stood at 3.43. As for QEAKLLHWNGRHKPLDFPSVHNDL, the figure is 2.87; as for QEAKLLHWNGRHKPVDFPSVHNDL, 3.49; as for QEAKLLHGNGRHKPWDFPSVHNDL, 3.6. For the variant QEAKLLHANGRHKPWDFPSVHNDL, the protein stability index worked out at 3.39. On to QEAKLLHQNGRHKPWDFPSVHNDL, for which the protein stability index turned out to be 3.71.

Consider QEAKLLHTNGRHKPWDFPSVHNDL, for which the protein stability index is 3.23. Regarding QEAKLLHPNGRHKPWDFPSVHNDL, the protein stability index amounted to 2.63.

Consider QEAKLLHDNGRHKPWDFPSVHNDL, for which the protein stability index turned out to be 3.5.

For QEAKLLHFNGRHKPWDFPSVHNDL, the protein stability index amounted to 2.62.

Regarding QEAKLLHMNGRHKPWDFPSVHNDL, the protein stability index came to 2.56. Take QEAKLLHLNGRHKPWDFPSVHNDL: the protein stability index is 3.24.

In the case of QEAKLLHCNGRHKPWDFPSVHNDL, the protein stability index stood at 3.2. For QEAKLLHSNGRHKPWDFPSVHNDL, the protein stability index worked out at 3.47. For QEAKLLHNNGRHKPWDFPSVHNDL, the protein stability index came out at 3.46.

Take QEAKLLHHNGRHKPWDFPSVHNDL: the protein stability index stood at 2.85. QEAKLLHYNGRHKPWDFPSVHNDL: the protein stability index amounted to 2.42. For QEAKLLHKNGRHKPWDFPSVHNDL, the protein stability index came to 2.69.

With QEAKLLHRNGRHKPWDFPSVHNDL, the protein stability index came out at 3.01. The same measure for QEAKLLHINGRHKPWDFPSVHNDL: 2.9.

Consider QEAKLLHENGRHKPWDFPSVHNDL, for which the protein stability index was found to be 3.47. Take QEAKLLHVNGRHKPWDFPSVHNDL: the protein stability index was found to be 3.1. In the case of QEAKLLHWNGRHKPWFFPSVHNDL, the protein stability index turned out to be 1.58. As for QEAKLLHWNGRHKPWVFPSVHNDL, the protein stability index stood at 2.12. In the case of QEAKLLHWNGRHKPWGFPSVHNDL, the protein stability index was 2.39. For QEAKLLHWNGRHKPWLFPSVHNDL, the protein stability index was 2.32. In the case of QEAKLLHWNGRHKPWPFPSVHNDL, the protein stability index worked out at 2.46. For the variant QEAKLLHWNGRHKPWRFPSVHNDL, the protein stability index came out at 2.33. The same measure for QEAKLLHWNGRHKPWTFPSVHNDL: 2.62; for QEAKLLHWNGRHKPWCFPSVHNDL: 1.55; for QEAKLLHWNGRHKPWHFPSVHNDL: 2.09. As for QEAKLLHWNGRHKPWAFPSVHNDL, the protein stability index turned out to be 1.96. As to QEAKLLHWNGRHKPWIFPSVHNDL, the protein stability index stood at 2.37.

As to QEAKLLHWNGRHKPWKFPSVHNDL, the protein stability index turned out to be 2.26. As for QEAKLLHWNGRHKPWSFPSVHNDL, the figure is 2.46.

In the case of QEAKLLHWNGRHKPWWFPSVHNDL, the protein stability index is 2.5. For the variant QEAKLLHWNGRHKPWMFPSVHNDL, the protein stability index was 2.12. The same measure for QEAKLLHWNGRHKPWEFPSVHNDL: 2.69; for QEAKLLHWNGRHKPWQFPSVHNDL: 2.48. QEAKLLHWNGRHKPWNFPSVHNDL: the protein stability index came out at 2.42. On to QEAKLLHWNGRHVPWDFPSVHNDL, for which the protein stability index was determined as 2.1. For the variant QEAKLLHWNGRHAPWDFPSVHNDL, the protein stability index was found to be 2.85. With QEAKLLHWNGRHIPWDFPSVHNDL, the protein stability index was determined as 2.35. Regarding QEAKLLHWNGRHYPWDFPSVHNDL, the protein stability index came to 2.43. As to QEAKLLHWNGRHLPWDFPSVHNDL, the protein stability index was 2.26.

For the variant QEAKLLHWNGRHNPWDFPSVHNDL, the protein stability index is 2.77. In the case of QEAKLLHWNGRHSPWDFPSVHNDL, the protein stability index stood at 2.27. QEAKLLHWNGRHPPWDFPSVHNDL: the protein stability index amounted to 3.04. The same measure for QEAKLLHWNGRHQPWDFPSVHNDL: 2.7; for QEAKLLHWNGRHEPWDFPSVHNDL: 2.92. The same measure for QEAKLLHWNGRHWPWDFPSVHNDL: 2.29; for QEAKLLHWNGRHRPWDFPSVHNDL: 2.86; for QEAKLLHWNGRHGPWDFPSVHNDL: 2.62. Turning to QEAKLLHWNGRHMPWDFPSVHNDL, the protein stability index was 2.94. QEAKLLHWNGRHHPWDFPSVHNDL: the protein stability index amounted to 2.47. Consider QEAKLLHWNGRHFPWDFPSVHNDL, for which the protein stability index stood at 2.69. Take QEAKLLHWNGRHDPWDFPSVHNDL: the protein stability index was found to be 3.73. Consider QEAKLLHWNGRHCPWDFPSVHNDL, for which the protein stability index stood at 2.29. Consider QEAKLLHWNGRHTPWDFPSVHNDL, for which the protein stability index worked out at 2.84.
